Laboratory results reported in the DeepSol protein solubility set.

Experiment: soluble on expression in E. coli; label from the status in PepcDB or PDB records
With “MYSYADRLRAVELYIRLGKRLNTTIRQLGYPTKNALRGWYREYVQHLDLRTQPVARAPKYSEAQRQAALEHFRTHDRCISGTMRALGYPGRGTLTAWVREAFPEARTSMVGRSWHPGYSEEVRQAGVIGLCSGDESAQQVADRLGVSRPTLYSWKDQLLGHEASSSMKRRKANPKVPEREELERKLEALQRDVRQLQLEHDLLKKANELLKKGLGVDLLILSNREKTQLIDALKEVYRLPELLAQLRIARSSYFYHRARMCLADKYAAVRLSLAEIFEANRRCYGYRRLQASLARKSVIVSEKVVQRLMKQEHLAVARPRRRRFGSYLGEISPAPENLINRDFHADAPNVKWLTDITEFQIPAGKVYLSPIIDCFDGMVISWSIGTQPDAGLVNTMLDAAIGTVANGEERPIIHSDRGAHYRWPGWLTRISEARLVRSMSRKGCSQDNAACEGFFGRLKTELFYPRDWKAITIEQFVAEVDAYIRWYNEKRIKISLGSLSPVEYRQSLGLKLAAALEHHHHHH” the “soluble on expression in E. coli” value was “soluble”.
In the case of “LRLHQWLRNHQPDEPPPDSYGLWGEVFDNIYHLQRRNQRARGRLQAVIDRIQESTAALRDAVIMLDSDGNLEWWNLAAENLLGLKTPQDGGQPVSNLIRHPRFKEYFDQEDYREPLEIPSPINERLRLQFHITLYGNREHLMLVRDVTRVHQLEQMRKDFVANVSHELRTPLTVIAGYLETLLDNVEDVNPRWLRALQQMQQQAGRMQNLLNDLLLLAKLEATDYPGDNKPVAVDALLASIRNDAQALSAGRNHRISLDAAPAVQLKGSEAELRSAFSNLVFNAVKYTPDEGEIRIRWWADEQGAHLSVQDTGIGVDPKHLPRLTERFYRVDSSRASNTGGTGLGLAIVKHVLIRHRARLEISSVPGKGSTFTCHFAPAQVAEAERKAPK”, the “soluble on expression in E. coli” value is reported as “not soluble”.
For “MRLALADAGDTVEDANFVEAMADAGILRLYTWVEWVKEMLASCSSLRSGPADSFNDRVFASEMNAGIIKTDQNYEKMMFKEALKTGFFEFQAAKDKYRELATEGMHRELVFRFIEVQTILLTPFCPHLCEHIWTLLGKPDSIMHASWPVAGPVDESLIRSSQYLMEVAHDLRLRLKNYMMPAKGKKTDKQPAQRPSHCTIYVAKNYPAWQHITLTTLRSHFEANNGKLPDNKVIASELGSLPELKKYMKKVMPFVAMIKENMEKKGPRVLDLELEFDEQAVLMENIVYLTNSLELEHIDVKFASEAEDKVREECCPGKPLNVFRTEPGVPVSLINPQPSSGHFSTKIDIRQGDSCESIIRRLTKTDRGIKDLSKVKLMRFDDPLLGPRRVPVLGREHSEKTLISENAVFHVDLVSKKVHLTENGLRMDIGDTMVYLVH”, the “soluble on expression in E. coli” value was “not soluble”.
For “MAHHHHHHMFRGRIELIIGPMFAGKTTELMRRVKREIHARRSCFVIKYSKDTRYDEHNVASHDQLMLRAQAAVSQLTEVRDTWKRFDVLAIDEGQFFSDLVDFCNTAADAGKVVMVSALDGDYRRKPFGQICELVPYCEAVDKLTAVCMMCHEQPACFTRRTVNVEQQELIGGADMYIATCRECYSKQQLPSIEEMRTQRMAIKEVEKRYLGLSDKRATASPQTPEKPAGGWCTKAGVATLPTMVKEGAASSGASAGMKSGRGLCEMQAFTTETPKYQRVEPACTASAASSE”, the “soluble on expression in E. coli” value was “soluble”.
With “MGLPCYHMQEVIMNKANKGHLDFWRKVANSPPGSQHDWNRVFANYTATVDNPGCCVWKELLAAYPDAKVLLTLHPRGAEAWYESTIDTIYFTENVWQFKILEWLTPFGWKFGDMSRKLIWGRTLDGVMNDRAKAVARYNTYVEQVKAAVPPHKLLVYKVTEGWAPLCDFLGLEHHHHHH” the “soluble on expression in E. coli” value was “not soluble”.
With “MEESSAAKIQLLKEFKFEKILKDDTKSKIITLYGKIRNEVALLLLEKTAFDLNTIKLDQLATFLQDTKLVENNDVFHWFLSTNFQDCSTLPSVKSTLIWPASETHVYKYSSQKKPMVCETPLMYLKVTKPFIETQRGPQIQWVENILTHKAEAERIVVEDPDPLNGFIVIPDLKWDRQTMSALNLMAIVHATDIASIRDLKYKHIPLLENIRNKVLTEVPKQFSVDKNQLKMFVHYLPSYYHLHVHILHVDHETGDGSAVGRAILLDDVIDRLRNSPDGLENVNITFNIGEQHFLFQPLTNMNA” the “soluble on expression in E. coli” value was “soluble”.
In the case of “MGSDKIHHHHHHMNRTQLSQLAVLSAVAAHGSFRGAAKELGIAPSAVSHAVGSLEASLGVRLLARTTRSVAATEEGKRLLERLRPALDDIAEALQRAAEARDRPAGKLRITAPRFAADLILAPRLGDFLGRYPDTVLEIANEDGFTNIVEEGYDAGIRLGESLEADMVAVKVGPELKSAVVAAPSYFERFQRPRHPRDLAGHRCIRRRFSNGTIYRWEFEKEGEELTVSVNGPLILGEDRPIIEAATGGAGLAYLFEPRVSGYVAEGKLVRVLEDWCAPYAGPFLYYPTRRLMRPALRAFIDFFRHSG”, the “soluble on expression in E. coli” value is reported as “not soluble”.
For “MSLKIKICGLSTKEAVDTAVESGVTHLGFILSPSKRQVAPEKILQITNDVPKTVKKVGVFVDEPIDFVKKAIQVAQLDLVQLHGNEDMNYINQLDISVIKAIRPDQEFKEYEDVILLFDSPQAGSGQAFDWDSLVTSGLKNKFFIAGGLNPENVAAAIQHFPNAYGVDVSSGVETDGIKNLTKIKNFVQNASLASSKQLFIEFLRITKKLNENKIIPYLMGSLAVEQIINFPTNPDDIDIQLKTSDFENFEQLTSLMEKLGYQLIDLHEHKFEKASIHVGFASVETLKNYAGVDYLTIQQERMENGEKYHLPNVEQSLKIYEAAKRDEWRGGKQKDSFIFDELIKEQKRNDNEGHHHHHH”, the “soluble on expression in E. coli” value was “soluble”.
In the case of “AHHHHHHGSGVEKVPKYDIPVKKVEYVFIELDKMKPHEQLVQRELEDFIESVTGSGIFWKPMLLAKIPGTDEYLIVDGHHRWAGLQKLGAKRAPSVILDYFDEGVKVYTWYPAFKGDVNKVIERLKAEGLEVIEDEKAEEKAEKGEIAFALIGEKSFAIPGGLEEQKKVSKVLDEMDQAKEIELVYYGLKEDAKADMEKGEIDYVFIRKAPTKEEVMELVKRGEVFSPKTTRHVLPFIPDKIDVKLEDLF”, the “soluble on expression in E. coli” value is reported as “soluble”.
For “MRVHVPAQDAREAVRQAAATTGDADVLSETDRRLLATAHELDGTLVSDDYAMQNVAAELAVTVESISQDGITERRDWRLQCQGCGREFDDTDHDRCPVCGSPLERKNPSLEHHHHHH”, the “soluble on expression in E. coli” value was “not soluble”.
With “MVRIIVKNVSKVFKKGKVVALDNVNINIENGERFGILGPSGAGKTTFMRIIAGLDVPSTGELYFDDRLVASNGKLIVPPEDRKIGMVFQTWALYPNLTAFENIAFPLTNMKMSKEEIRKRVEEVAKILDIHHVLNHFPRELSGAQQQRVALARALVKDPSLLLLDEPFSNLDARMRDSARALVKEVQSRLGVTLLVVSHDPADIFAIADRVGVLVKGKLVQVGKPEDLYDNPVSIQVASLIGEINELEGKVTNEGVVIGSLRFPVSVSSDRAIIGIRPEDVKLSKDVIKDDSWILVGKGKVKVIGYQGGLFRITITPLDSEEEIFTYSDHPIHSGEEVLVYVRKDKIKVFEKN” the “soluble on expression in E. coli” value was “soluble”.
With “MSLNWKQLISAKRFGMEEFHEERQENRSEFQRDYDRLIFSAPFRRLQNKTQVFPLPGSIFVHNRLTHSLEVSCVGRSLGNDVAKAILERQPELESSFLPEIGSIVSAACLAHDLGNPPFGHSGERAISTFFSEGKGQRLQEKQPDGEQLSPMEWEDLTHFEGNANAFRILTHQFEGRRRGGFVLTYSTLASIVKYPFSSSLAGKKSKFGFFVSEEESYRKIATELGLIQLSEQPLKYARHPLVYLVEAADDICYQMMDIEDAHKLKIITTDETKELLMAFFSEDRQSRLRSTFQIVNDINEQIAYLRSSVIGLLVRECTRVFLEHEQEILAGTFEGALIKHIAEGPAAAYNHCAEISLKRIYRSQDVLDIELAGFRIISTLLELMVDAVTLPGKEKAYSELLTNRVSDQYNIKSPVLYERIQAVLDYISGMTDVFALDLYRKINGNSLPAEGHHHHHH” the “soluble on expression in E. coli” value was “soluble”.
With “MGSDKIHHHHHHMKIVKISPRGYCYGVVDAMVIARNAALDTSLPRPIYILGMIVHNKHVTDAFEEDGIITLDGPSRLDILDKIDSGTVIFTAHGVSPEVKQRAKEKGLTTIDATCPDVTKTHDLIEAKKAEGYHVIYIGKKNHPEPEGAVGIAPDIVHLIERADDLKTLEIPTDKILVTNQTTMSQWDVQHLMEDIQKKFPTAEFHKEICLATQVRQEAVAKQADVADLTIVVGDPKSNNSNRLAQVSQEIAGTKAYRVADVSEIKLEWLQGVENVAVTAGASTPTPITKEVIAFLEQYDPMNPATWERVRKVPLQKILPRVKVKKEQ” the “soluble on expression in E. coli” value was “not soluble”.
With “MSLDRGVQWVLMGAPGAWRHVFAERLSKLLEVPHISMGSLVRQELNPRSSLYKEIASAVNERKLVPKSVVFALLSKRLEEGYARGETGFILHGIPRTRFQAETLDQIAQIDLVVNLKCSEDHLVNRNETALPQQEFLGSMLHSPVAINARRESVGVYAQEVEEYYRKQRKLLDFHVGGATSADTWQGLLAALHLKQVNLTTSQKLTEGHHHHHH” the “soluble on expression in E. coli” value was “not soluble”.
In the case of “MSLNTRRLLDLSVTLDNNPYTDPPPLLPKIDYMDHQQGWPEMAAMFPGLRKEDLPGDESWAAERLQITTHSGTHMDAPWHYASTTDGGKPAFGIDELPLEWCLQPGVKLDFRHLPDGHVVTAAQVEAELARIGHELQPLDIVLVNTRAGSLFGQPGYLEAGVGMGREATLYLLERGVRVVGTDAWSWDAPFKFTRERFSETGDASIIWEGHKAGRDIGYGQMEKLANLEQLPADGFLVSCFPYKIRHASAGFVRAVAIFDLEHHHHHH”, the “soluble on expression in E. coli” value is reported as “soluble”.
With “SISTHESQKLREYYRLLNLDEGCSVDDVRESFHKLARQYHPDSGSSDADSATFIKIEEAYRNVLSHAIKRMHAGQDKAEDAAEDEEEGKFKYNTPQHRHYLSFEGVGFGTPSQREKQYRQFRADRATEQVMEYQRQKLQREFFANSITVKDVRQSKQQKITQAIERLVEDLIQESMAKGDFDNLSGKGKPLKKFSGCSYIDPMTHNLNRILIDNGYQPEWILMQKEIKDTIEQLREALLMSRKKLGNPLSPTEQKQWAQVCEQFQEKIRKLNKRINDFNLIVPILTRQKVHFDAQKEIIRVQEMYGAFVEANEVTEENQTDVSQGEESKTPRVKAGFLNWLNLWKSIKI” the “soluble on expression in E. coli” value was “soluble”.
In the case of “MAHHHHHHERASLITTGPYGHQSGAVYVGNYKVVNRHLATHVDWQNCVWEDYNRDLLVSTTTAHGCDTIARCQCTTGVYFCASKSKHYPVSFEGPGLVEVQESEYYPKRYQSHVLLATGFSEPGDAGGILRCEHGVIGLVTMGGEGVVGFADVRDLLWLEDDAMEQ”, the “soluble on expression in E. coli” value is reported as “soluble”.
With “AGALWEIEKELFTKLPAPSSAINSHLQPAKPKVPQKKPSKWDPPAEFKVDLSTAVSYNDIGDINWKNLQQFKGIERSEKGTEGLFFVETESGVFIVKRSTNIESETFCSLLCMRLGLHAPKVRVVSSNSEEGTNMLECLAAIDKSFRVITTLANQANILLMELVRGITLNKLTTTSAPEVLTKSTMQQLGSLMALDVIVNNSDRLPIAWTNEGNLDNIMLSERGATVVPIDSKIIPLDASHPHGERVRELLRTLIAHPGHESSQFHSIRDIITLYTGYDVGTEGSISMQEGFLATVRECASFDLDAFERELLSWQESLQKCHNLSISPQAIPFILRMLRIFH” the “soluble on expression in E. coli” value was “soluble”.
For “MAHHHHHHMNASGATASEGKNPPRDARTVSFHPESTFHEQHNAASQRFSHTSEPGWESRESNSGYAAQDGGDTANEGIRRSYYKRLYRFYRKYNPQKLCNVEKLLRECRGEEEQLFAILVGKYGPEPEEESSMLSGDCVFSSAGDSVMHYSGKRCQFPKKVKPEEGNTDCETPYWAGASSLIGDRDLLSLLQNLETPNVELQKCYMGVFAEHPTDCWNGMAYITRAEGIAPANTKFLGHTWVGTLGSGKVLVHEGKKFHRTTLYCTEECQKRGNHERWRLSVYRGEVSYLILLRTVWDPVVVPEPLPLNRSNLSEREVHSSLDGFPTRLSSMSSADSGGSGSRQPIQPPQPQQHTVTPAFVQFTKLLEELESRIIERLEGLERRMSRLENM”, the “soluble on expression in E. coli” value was “not soluble”.
